Values joined by “and” are separate entries in the source; they are usually repeats but may differ in a detail not shown here. Equal entries are not always repeated. Where two headings read alike, the source gives them in different places.
What was measured:
[1] = system: Met-tagged onconase; assay: In vivo catalytic activity of MetAPs co-expressed with Met-tagged onconase in E. coli BL21(DE3); N-terminus by Edman degradation; format: cell-based; details: in vivo in E. coli
Excerpt: Residues Tyr168, Met206 and Gln233 in the putative substrate-binding site of E. coli MetAP were mutated by site-directed mutagenesis based on the crystal structure and amino acid sequence alignment of MetAPs (Ben-Bassat et al., 1987; Lowther et al., 1999; Walker et al., 1999). For the expression of secretory ribonucleases, the ribonuclease gene was cloned and expressed as described previously (Huang et al., 1998).
Most of the co-expressed target protein, e.g., onconase or RC-RNase L1, existed in insoluble cell lysate. They were denatured, renatured and purified as described previously (Liao et al., 2003). The purified ribonucleases were stored in 20 mM sodium phosphate, pH 7.0, for pyroglutamate formation at the N-terminus. Alternatively, the ribonuclease secreted into culture medium through pe1B system was concentrated and purified to electrophoretical homogeneity at a yield of 1˜5 mg per 1 liter of culture (Huang et al., 1998).

[2] = biological target: T1, synthetic oligopeptides (Escherichia coli, UniProt P0AE18, M206T/Q233G/Y168G); format: biochemical; details: dodecapeptides, in vitro
T1 construct: […]; made in house; host or cells: E. coli BL21(DE3)
T1 sequence (P0AE18 2-264 Y168G/M206T/Q233G): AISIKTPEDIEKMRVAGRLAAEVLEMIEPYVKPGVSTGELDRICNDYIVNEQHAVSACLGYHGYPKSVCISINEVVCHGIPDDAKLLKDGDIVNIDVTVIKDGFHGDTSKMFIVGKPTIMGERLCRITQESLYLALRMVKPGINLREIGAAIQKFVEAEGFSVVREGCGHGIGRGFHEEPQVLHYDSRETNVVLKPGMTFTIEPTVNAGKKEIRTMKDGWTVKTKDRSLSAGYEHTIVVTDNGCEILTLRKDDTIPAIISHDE
Procedure: (§1) The oligopeptide substrates used in this experiment were synthesized on the 432A Synergy peptide synthesizer (Applied Biosystems, Foster, Calif., USA). The enzymatic activity of purified MetAP was assayed as described by Ben-Bassat et al., 1987. Briefly, the diluted MetAP enzyme in 10 μl was added to 90 μl of the substrate solution containing 4 mM oligopeptide, 0.1 M potassium phosphate buffer, pH 7.5 and 0.2 mM CoCl2, incubated at 37° C. for 10 min and stopped in boiling water for 2 min. After addition of 0.9 ml of color development mixture containing 0.2 mg of L-amino acid oxidase, 0.03 mg of horseradish peroxidase and 0.2 mg of o-dianisidine in 0.1 M Tris-HCl, pH 7.4, the mixtures were incubated for 10 min at 37° C., and the optical density at 440 nm was recorded. One unit of activity is defined as 1 μmol of amino acids produced per min under the assay conditions and the pure Met was used as standard. The N-terminal residues of the MetAP-treated oligopeptide were further verified by Edman degradation.

[3] = system: synthetic oligopeptides; format: biochemical; details: for Specific activity (unit/mg): 4 mM oligopeptide, pH 7.5, 37° C.
Procedure: as §1

B1: MetAP-GTG (protein)
chain: AISIKTPEDIEKMRVAGRLAAEVLEMIEPYVKPGVSTGELDRICNDYIVNEQHAVSACLGYHGYPKSVCISINEVVCHGIPDDAKLLKDGDIVNIDVTVIKDGFHGDTSKMFIVGKPTIMGERLCRITQESLYLALRMVKPGINLREIGAAIQKFVEAEGFSVVREGCGHGIGRGFHEEPQVLHYDSRETNVVLKPGMTFTIEPTVNAGKKEIRTMKDGWTVKTKDRSLSAGYEHTIVVTDNGCEILTLRKDDTIPAIISHDE
Catalytic activity (%): percent of penultimate residue removed ([1]; substrate MAA-Onc): 30%
Catalytic activity (%): removal of N-terminal Met ([1]; substrate MAA-Onc): 100%
Catalytic activity (%): percent of penultimate residue removed ([1]; substrate MAG-Onc): 16%
Catalytic activity (%): removal of N-terminal Met ([1]; substrate MAG-Onc): 86%
Catalytic activity (%): removal of N-terminal Met ([1]; substrate MAL-Onc): 100%
Catalytic activity (%): removal of N-terminal Met ([1]; substrate MAM-Onc): 96%
Catalytic activity (%): removal of N-terminal Met ([1]; substrate MDD-Onc): 27%
Catalytic activity (%): removal of N-terminal Met ([1]; substrate MED-Onc): 35%
Catalytic activity (%): percent of penultimate residue removed ([1]; substrate MFA-Onc): 100%
Catalytic activity (%): removal of N-terminal Met ([1]; substrate MFA-Onc): 36%
Catalytic activity (%): removal of N-terminal Met ([1]; substrate MFD-Onc): 23%
Catalytic activity (%): removal of N-terminal Met ([1]; substrate MIA-Onc): 96%
Catalytic activity (%): removal of N-terminal Met ([1]; substrate MID-Onc): 94%
Catalytic activity (%): removal of N-terminal Met ([1]; substrate MKA-Onc): 9%
Catalytic activity (%): removal of N-terminal Met ([1]; substrate MKD-Onc): 7%
Catalytic activity (%): percent of penultimate residue removed ([1]; substrate MLA-Onc): 80%
Catalytic activity (%): removal of N-terminal Met ([1]; substrate MLA-Onc): 100%
Catalytic activity (%): removal of N-terminal Met ([1]; substrate MLD-Onc): 90% and 98%
Catalytic activity (%): percent of penultimate residue removed ([1]; substrate MLG-Onc): 46%
Catalytic activity (%): removal of N-terminal Met ([1]; substrate MLG-Onc): 87%
Catalytic activity (%): percent of penultimate residue removed ([1]; substrate MLH-Onc): 51%
Catalytic activity (%): removal of N-terminal Met ([1]; substrate MLH-Onc): 100%
Catalytic activity (%): percent of penultimate residue removed ([1]; substrate MLL-Onc): 55%
Catalytic activity (%): removal of N-terminal Met ([1]; substrate MLL-Onc): 93%
Catalytic activity (%): removal of N-terminal Met ([1]; substrate MLM-Onc): 100%
Catalytic activity (%): percent of penultimate residue removed ([1]; substrate MLN-Onc): 68%
Catalytic activity (%): removal of N-terminal Met ([1]; substrate MLN-Onc): 100%
Catalytic activity (%): percent of penultimate residue removed ([1]; substrate MLP-Onc): 95%
Catalytic activity (%): removal of N-terminal Met ([1]; substrate MLP-Onc): 55%
Catalytic activity (%): percent of penultimate residue removed ([1]; substrate MLS-Onc): 69%
Catalytic activity (%): removal of N-terminal Met ([1]; substrate MLS-Onc): 87%
Catalytic activity (%): percent of penultimate residue removed ([1]; substrate MLT-Onc): 54%
Catalytic activity (%): removal of N-terminal Met ([1]; substrate MLT-Onc): 72%
Catalytic activity (%): percent of penultimate residue removed ([1]; substrate MLV-Onc): 69%
Catalytic activity (%): removal of N-terminal Met ([1]; substrate MLV-Onc): 97%
Catalytic activity (%): removal of N-terminal Met ([1]; substrate MQD-Onc): 97%
Catalytic activity (%): percent of penultimate residue removed ([1]; substrate MQM-Onc): 100%
Catalytic activity (%): removal of N-terminal Met ([1]; substrate MQM-Onc): 100%
Catalytic activity (%): value in parenthesis after Met and Gln removal (third cleavage site, second Met) ([1]; substrate MQM-Onc): 73%
Catalytic activity (%): percent of penultimate residue removed ([1]; substrate MQN-Onc): 90%
Catalytic activity (%): removal of N-terminal Met ([1]; substrate MQN-Onc): 83%
Catalytic activity (%): percent of penultimate residue removed ([1]; substrate MQP-Onc): 100%
Catalytic activity (%): removal of N-terminal Met ([1]; substrate MQP-Onc): 54%
Catalytic activity (%): percent of penultimate residue removed ([1]; substrate MQT-Onc): 79%
Catalytic activity (%): removal of N-terminal Met ([1]; substrate MQT-Onc): 86%
Catalytic activity (%): removal of N-terminal Met ([1]; substrate MRA-Onc): 8%
Catalytic activity (%): removal of N-terminal Met ([1]; substrate MRD-Onc): 4%
Catalytic activity (%): percent of penultimate residue removed ([1]; substrate MWA-Onc): 89%
Catalytic activity (%): removal of N-terminal Met ([1]; substrate MWA-Onc): 100%
Catalytic activity (%): removal of N-terminal Met ([1]; substrate MWD-Onc): 78%
Catalytic activity (%): removal of N-terminal Met ([1]; substrate MWD-Onc, listed as GTG): much higher activities
Catalytic activity (%): removal of N-terminal Met ([1]; substrate MYA-Onc): 22%
Catalytic activity (%): removal of N-terminal Met ([1]; substrate MYD-Onc): 20%
Catalytic activity (%): removal of N-terminal Met ([1]; substrate MYD-Onc, listed as GTG): much higher activities
Specific activity on […] as % of that for […] [2]: 43%
In vitro catalytic activity ([3]; oligopeptides with Gln at the penultimate residue): the most activity
Specific activity (unit/mg) ([3]; substrate MADY (SEQ ID NO:7)): 1.68 ± 0.51 unit/mg
Specific activity (unit/mg) ([3]; substrate MADYLT (SEQ ID NO:8)): 2.50 ± 0.42 unit/mg
Specific activity (unit/mg) ([3]; substrate MQDYLT (SEQ ID NO:9)): 0.23 ± 0.01 unit/mg
Specific activity (unit/mg) ([3]; substrate […] (SEQ ID NO:5)): 9.80 ± 0.26 unit/mg
Specific activity (unit/mg) ([3]; substrate […] (SEQ ID NO:6)): 4.24 ± 0.14 unit/mg

Source: US7109015B2, “Removal of N-terminal methionine from proteins by engineered methionine aminopeptidase” (Academia Sinica, priority 2004, dated 2006)
